Data taken from US10975142B2, “Endotrophin neutralization and use thereof” (THE BOARD OF REGENTS OF THE UNIVERSITY OF TEXAS SYSTEM, priority 2013, dated 2021).

Key:
MS-1 cells = test: MS-1 migration assay (Transwell); assay type: cell-based, mouse; conditions: ETP protein 1 μg/well, 24 hours
Experimental: FIGS. 7A-7I: ETP acts as a chemokine augmenting tumor growth. […] Tumor volume was determined 1 month after implantation (representative images). Data represent mean±SEM (n=5 per group). ***P<0.001, unpaired t test. (FIG. 7B) In vivo Matrigel bioassay. Matrigel (50 μl) was mixed with ETP (100 ng/plug) or PBS and implanted into WT mice in the presence of IgG, 1D11, or 10B6 (20 μg/plug). 2 days after implantation, plugs were excised and stained for FIG. 7H & FIG. 7E. Scale bars: 100 μm. (FIGS. 7C-7H) Cancer cells were plated in the bottom chamber 1 day prior to seeding MS-1 cells (5×10^5 cells/well) and macrophages (1×10^5 cells/well) atop the membrane chamber in Transwell and incubated for 18-24 hours (FIG. 7C). (FIGS. 7D, 7E, 7F, 7G) Representative images of multiple independent experiments. Scale bars: 100 μm. (FIG. 7H) Quantitation (mean±SEM; n=3 per group). ***P<0.001, […], unpaired t test. (FIG. 7I) MS-1 migration assay. MS-1 cells (5×10^5 cells/well) were plated atop the chamber in Transwell and incubated for 24 hours. […]
Thioglycollate-elicited macrophages or MS-1 in serum-free media were loaded into the upper chamber of a Transwell plate (8 μm pore size; Costar). […] 18 hours later, cells on the underside of the membrane were fixed with 10% formalin, stained with hematoxylin, and counted. […]

Met-1 cells [1] = test: allografts of Met-1 cells with ETP or PBS and 1D11 or IgG in a Matrigel plug; assay type: in vivo, mouse; conditions: ETP 20 ng/plug vs PBS
Experimental: FIGS. 6A-6H: ETP augments metastasis through enforcing TGF-β-dependent EMT. (FIG. 6A) E-cadherin immunostaining for tumor tissues from PyMT and PyMT/ETP. (FIG. 6B and FIG. 6C) SBE-luciferase reporter assay. See Supplemental Methods for details. Data represent fold increase (3 independent experiments). **P<0.01, *P<0.05, 2-way ANOVA. pRA-ctrl, empty; pRA-sETP, secretion form; pRA-ETP, intracellular form. (FIGS. 6D-6G) Allografts of Met-1 cells in the presence of either ETP (20 ng/plug) or PBS mixed with 1D11 or IgG (10 μg/plug) within a Matrigel plug. 10 days after implantation, additional 1D11 or IgG (100 μg) was i.p. injected once a week during tumor progression. (FIG. 6D) Tumor volumes represent means±SEM (n=5 per group). *P<0.05, 2-way ANOVA. (FIG. 6E) H&E staining. The ratio of stromal area in tumor tissues was quantified. Data represent mean±SEM (n=5 per group). *P<0.05, unpaired t test. T; tumor and S; stroma. (FIG. 6F) Fibrosis was determined by Masson's Trichrome C stain. Data represent mean±SEM (n=5 per group). **P<0.01, ***P<0.001, unpaired t test. (FIG. 6G) Western blotting for EMT markers E-cadherin, vimentin, and α-SMA. β-actin, loading control. Data represent fold increase (n=5 per group). *P<0.05, **P<0.01, ***P<0.001, unpaired t test. […] 20 days post injection, metastasized cancer cells in the lung tissues were determined by fluorescence intensity. […]

Met-1 cells [2] = test: Mitotic Index Assay with endotrophin; assay type: cell-based, mouse; conditions: Met-1, purified ETP, 24 hours
Experimental: (§1) FIGS. 15A-15D. Endotrophin has a limited effect on tumor cell proliferation. FIG. 15A. […] An equal number of cancer cells were freshly isolated from tumor tissues of PyMT (ctrl-cancer cells) and PyMT/endotrophin (ETP^+-cancer cells) and implanted into WT mice (1×10^6 cells/mouse). Tumor volume was determined 1 month post-implantation. Quantitative results are represented as mean±SEM (n=7/group). p=n.s vs. Ctrl-cancer cells by unpaired t-test. FIG. 15B. Met-1 cells were seeded into the 96 well plates and incubated with DMEM/10% FBS/PBS, DMEM/10% FBS/endotrophin, or conditioned media acquired from HEK293 or HEK293/endotrophin-overexpressing cells for 24 hours. Mitotic activity was measured with a Mitotic Index Assay Kit (Active Motif) following the manufacturer's protocol. Paclitaxel (1 μM) was used as a positive control of mitosis. Quantified results are represented as mean±SEM (n=10/group) p=n.s vs. PBS or Ctrl-media by unpaired t-test. FIG. 15C. Human breast cancer cells, MCF7 (0.1×10^5) were plated in the 24 well plates with or without recombinant endotrophin protein and cell numbers were counted over time. The quantification of results is represented as mean±SEM (n=6/group, triplicate). p=n.s vs. PBS by unpaired t-test. FIG. 15D. […] Endomucin positive area was quantified and represented as mean±SEM (multiple images, n=4/group). ***p=0.0008 vs. ctrl by unpaired t-test. Scale bars: 200 μm.

[3] = analysis of ETP homing (IRD-800 labeled ETP, tail vein); assay type: in vivo, mouse
Experimental: FIGS. 2A-2D: ETP levels in human cancer specimens and its target tissues. (FIG. 2A and FIG. 2B) Human cancer tissues compared with those of benign tissues were immunostained with human ETP-specific polyclonal antibody. Human samples for breast cancer (FIG. 2A) and colon cancer (FIG. 2B) were analyzed. […] (FIG. 2C and FIG. 2D) Whole body in vivo imaging of injected ETP. IRD-800 fluorescence-labeled ETP protein (10 μg) was intravenously injected into WT, 8-week-old PyMT, and 10-week-old PyMT mice by tail vein. (FIG. 2C) ETP levels were visualized by the Licor Infrared Scanner 10-90 minutes after injection. Arrows indicate mammary tumors. L, liver; B, bladder; T, tumor. IgG was used as a negative control. (FIG. 2D) Tissues were excised 2 hours after injection, and ETP-positive fluorescence signals were determined with a Licor Infrared Scanner. Quantified values were normalized to total area and represented as percentage of WT. ***P<0.001.
The homing of ETP in circulation was determined by injecting fluorescently labeled ETP into tail veins. ETP and IgGs were labeled with IRDye800 CW NHS Ester (Licor Bioscience) at a 1:1 molar ratio (dye/protein), according to the manufacturer's instructions. Whole-body fluorescence images were collected on the Odyssey scanner (Licor Bioscience). […] Quantified values were normalized to the total area of each organ.

MCF7 = test: cell number counts with recombinant endotrophin protein; assay type: cell-based, human; conditions: MCF-7, purified ETP
Experimental: as §1

ETP = target: T1, ETP (Mus musculus, UniProt E9PWQ3); test: in vivo Matrigel bioassay (stromal cell recruitment into plugs); conditions: recombinant ETP 100 ng/plug vs PBS, mammary fat pads of WT mice
T1 sequence (E9PWQ3 with tags, fused parts or gaps limits assumed): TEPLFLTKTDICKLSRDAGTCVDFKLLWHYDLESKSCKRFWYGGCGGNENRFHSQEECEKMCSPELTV
Experimental: FIGS. 7A-7I: ETP acts as a chemokine augmenting tumor growth. […] Tumor volume was determined 1 month after implantation (representative images). Data represent mean±SEM (n=5 per group). ***P<0.001, unpaired t test. (FIG. 7B) In vivo Matrigel bioassay. Matrigel (50 μl) was mixed with ETP (100 ng/plug) or PBS and implanted into WT mice in the presence of IgG, 1D11, or 10B6 (20 μg/plug). 2 days after implantation, plugs were excised and stained for FIG. 7H & FIG. 7E. Scale bars: 100 μm. (FIGS. 7C-7H) Cancer cells were plated in the bottom chamber 1 day prior to seeding MS-1 cells (5×10^5 cells/well) and macrophages (1×10^5 cells/well) atop the membrane chamber in Transwell and incubated for 18-24 hours (FIG. 7C). (FIGS. 7D, 7E, 7F, 7G) Representative images of multiple independent experiments. Scale bars: 100 μm. (FIG. 7H) Quantitation (mean±SEM; n=3 per group). ***P<0.001, […], unpaired t test. (FIG. 7I) MS-1 migration assay. MS-1 cells (5×10^5 cells/well) were plated atop the chamber in Transwell and incubated for 24 hours. Chemotaxis was set up by following cell migration from DMEM/serum-free to DMEM/2% FBS/PBS or DMEM/2% FBS/ETP protein (1 μg/well). Images are representative of multiple independent experiments. Data represent mean±SEM (n=3 per group). ***P=0.008, unpaired t test. Scale bars: 100 μm.

[4] = target: T2, native form of endotrophin protein (Mus musculus, UniProt E9PWQ3); test: capture of IRD-800 labeled native endotrophin by monoclonal antibodies (Protein G Sepharose pull-down); assay type: binding; conditions: 2 hours at room temperature, rat-IgG as control
T2 construct: made in house; purified from conditioned media by gel filtration
T2 sequence (E9PWQ3 with tags, fused parts or gaps): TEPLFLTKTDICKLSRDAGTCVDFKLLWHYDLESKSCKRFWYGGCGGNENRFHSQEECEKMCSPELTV
Source text: FIGS. 9A-9C. Generation of endotrophin-specific antibodies. FIG. 9A. HEK-293 cell produced mouse endotrophin was subjected to Western blotting using rabbit anti-mouse endotrophin polyclonal antibody. FIG. 9B. Bacterially produced GST-fused recombinant human endotrophin protein was subjected to western blotting using a rabbit anti-human endotrophin polyclonal antibody. GST protein was used as a negative control. The arrow points at endotrophin. FIG. 9C. […] IRD (infrared dye)-800 labeled native form of endotrophin protein was incubated with either endotrophin monoclonal antibodies, including 4D1, 4F8, 10B6-A11, 10B6-B5, and 10B6-C3 or a rat-IgG for 2 hours at room temperature and subsequently incubated with Protein G Sepharose for 1 hour. The protein-Sepharose complex was separated on a 10-20% Tricine gel after 3 times washing with PBS. Captured endotrophin protein was visualized on a Licor Odyssey Infrared Scanner (Licor Bioscience). Green color represents the IRD800 channel.

B1: ETP: cleaved C5 fragment of the COL6α3 chain, used as recombinant or purified protein (protein)
chain: TEPLFLTKTDICKLSRDAGTCVDFKLLWHYDLESKSCKRFWYGGCGGNENRFHSQEECEKMCSPELTV
Question: For B1, which “MS-1 cells recruited (migration) vs controls” value (MS-1 cells) is on record?
Answer: twice as many

Question: What about the “tumor growth for Met-1 cells” value (Met-1 cells [1]) of the same molecule?
Answer: significantly enhanced

Question: And the “cell proliferation (mitotic activity)” value (Met-1 cells [2])?
Answer: not affected

Question: And the “whole body in vivo distribution of labeled ETP” value ([3]; 10 μg i.v., PyMT mice, compared with control-labeled IgGs)?
Answer: predominantly observed in tumor lesions

Question: What about the “ETP fluorescence in excised tissues relative to mammary glands of WT mice” value ([3]; tissues excised 2 hours after injection) of the same molecule?
Answer: highly enriched in mammary tumor tissues

Question: And the “cell proliferation (cell numbers over time)” value (MCF7)?
Answer: not affected

Question: And the “stromal cells recruited into Matrigel plugs” value (ETP)?
Answer: significantly more stromal cells

B2: 10B6-A11: rat anti-mouse endotrophin monoclonal antibody (antibody, V domains shown)
VH: QVQLQQSGPELAKPGSSVKISCKASGYTFTSYEMHWIKQRPGQGLEWIGYIYPESGSTGYNEKFKGKATLTVDKSSPTAYMQLSSLTPDNSAVYFCTRGLRVLGYVMDVWGHGTSVTVSS
VL: DVQLTQSPSFLSASVGDRVTINCKASQNINKYLNWYQQKLGEAPKRLIYNTNNLQTGIPSRFSGSASGTDYTLTISSLHPEDFATYFCLQHSSLYTFGAGTKLELK
Question: For B2, which “capture of the native form of endotrophin protein” value (“capture” below) [4] is on record?
Answer: efficiently capture

B3: 10B6-C3: rat anti-mouse endotrophin monoclonal antibody (antibody, V domains shown)
VH: QVQLQQSGPELAKPGSSVKISCKASGYTFTSYEMHWIKQRPGQGLEWIGYIYPESGSTGYNEKFKGKATLTVDKSSPTAYMQLSSLTPDNSAVYFCTRGLRVLGYVMDVWGHGTSVTVSS
VL: DVQLTQSPSFLSASVGDRVTINCKASQNINKYLNWYQQKLGEAPKRLIYNTNNLQTGIPSRFSGSASGTDYTLTISSLHPEDFATYFCLQHSSLYTFGAGTKLELK
Question: Which “capture” value [4] does the source give for B3 here?
Answer: efficiently capture

B4: 10B6-B5: rat anti-mouse endotrophin monoclonal antibody (antibody, V domains shown)
VH: QVQLQQSGPELAKPGSSVKISCKASGYTFTSYEMHWIKQRPGQGLEWIGYIYPESGSTGYNEKFKGKATLTVDKSSPTAYMQLSSLTPDNSAVYFCTRGLRVLGYVMDVWGHGTSVTVSS
VL: DVQLTQSPSFLSASVGDRVTINCKASQNINKYLNWYQQKLGEAPKRLIYNTNNLQTGIPSRFSGSASGTDYTLTISSLHPEDFATYFCLQHSSLYTFGAGTKLELK
Question: For B4, which “capture” value [4] is on record?
Answer: efficiently capture
